Data published in PMC8567202, “Phosphoinositide-binding activity of Smad2 is essential for its function in TGF-β signaling” (The Journal of Biological Chemistry, 2021).

Test system: HeLa cells
Assay: Smad2 phosphorylation (pS465/pS467), Western blot
Assay type: cell-based
Conditions: HeLa cells, PI(4,5)P2 depletion
Procedure: Two separate gels were used to accommodate all mutants. An empty vector transfection (vehicle) was used for a negative control for each gel. Glyceraldehyde 3-phosphate dehydrogenase (GAPDH) was used as a gel loading control. Data in A and B are quantified in Fig. S3A. C, TGF-β stimulated (10 ng/ml for 1 h) nuclear translocation of mouse EGFP-WT, -K420A, -W422A, -E425K, -Y426A, and -R427A/R428A transfected into HeLa cells whose endogenous Smad2 was suppressed by siRNA. For Smad2-WT, the effect of PI(4,5)P2 depletion was measured. Arrows indicate nuclear accumulation of EGFP-WT and EGFP-E425K. Scale bars indicate 10 μm. D, quantification of (C). (Inuc/Icyto) was calculated from total nuclear and cytosolic fluorescence intensity values. Blank and black bars indicate values before and after TGF-β stimulation. Error bars indicate S.D. values from >3 measurements (n = 10). E, Smad2 transcriptional activity measured by the luciferase assay. Blank and black bars indicate values before and after TGF-β stimulation. Error bars indicate S.D. values from >3 measurements (n = 10).
HeLa cells were plated on 6-well or 48-well plates at the density of ∼1.5 × 10^5 or 1.25 × 10^4 for 24 h and 30 nM human Smad2 (or SARA) DsiRNAs (IDT: see sequences below) were transfected into cells using the jetPRIME system (Polyplus transfection) according to the manufacturer's protocols. After transfection with siRNA for 24 h, the medium was exchanged with a fresh one and cells were transfected again with 1 μg/ml of the mouse Smad2 expression vector. In total, 24 to 48 h after transfection, cells were used for further treatment or Western blot analysis. The sequences of DsiRNAs are as follows: SMAD2-siRNA1 (sense: 5′-[…]-3′; antisense: 5′-[…]-3′); SMAD2-siRNA2 (sense: 5′-[…]-3′; antisense: 5′-[…]-3′); SMAD2-siRNA3 (sense: 5′-[…]-3′; antisense: 5′-[…]-3′); SARA-siRNA1 (sense: 5′-[…]-3′; antisense: 5′-[…]-3′); SARA-siRNA2 (sense: 5′-[…]-3′; antisense: 5′-[…]-3′).
Transfected cells or treated cells were lysed in the cell lysis buffer (20 mM Tris-HCl, pH 7.5, containing 150 mM NaCl, 1 mM Na2EDTA, 1 mM EGTA, 1% Triton-X, protease inhibitors, and phosphatase inhibitors) (1 mM Na3VO4, 1 mM NaF, 1 μg/ml leupeptin, 1 mM phenylmethanesulfonylfluoride, 1.5 mM benzamidine, and 2 μg/ml pepstatin). The total protein concentration of the cell lysate was determined by the Pierce BCA protein assay kit (Thermo scientific). The same amounts of proteins were loaded onto a polyacrylamide gel to run sodium dodecyl sulfate–polyacrylamide gel electrophoresis. Proteins were separated and transferred to a polyvinylidene difluoride membrane. The membrane was blocked with 5% bovine serum albumin for 1 h and incubated overnight at 4 °C with various antibodies (1:1000 dilution for all antibodies). After the unbound antibodies were removed by washing with 0.1% Tris buffer saline with 0.1% Tween20, the membranes were incubated with the horseradish peroxidase secondary antibody (1:5000 dilution) for 1 h at room temperature. The membranes were washed three more times with 0.1% Tris buffer saline with 0.1% Tween20 to remove the unbound horseradish peroxidase secondary antibody before imaging. The chemiluminescence intensity of protein bands in the gel was analyzed and documented by the Azure 500Q Imaging System.

Molecule | Smad2 phosphorylation after PI(4,5)P2 depletion
Smad2 WT: bacterially expressed full-length Smad2 wild-type (protein, left off: His6, N-terminal, state not stated, bacterially expressed full-length Smad2 wild-type) MSSILPFTPPVVKRLLGWKKSAGGSGGAGGGEQNGQEEKWCEKAVKSLVKKLKKTGRLDELEKAITTQNCNTKCVTIPSTCSEIWGLSTANTVDQWDTTGLYSFSEQTRSLDGRLQVSHRKGLPHVIYCRLWRWPDLHSHHELKAIENCEYAFNLKKDEVCVNPYHYQRVETPVLPPVLVPRHTEILTELPPLDDYTHSIPENTNFPAGIEPQSNYIPETPPPGYISEDGETSDQQLNQSMDTGSPAELSPTTLSPVNHSLDLQPVTYSEPAFWCSIAYYELNQRVGETFHASQPSLTVDGFTDPSNSERFCLGLLSNVNRNATVEMTRRHIGRGVRLYYIGGEVFAECLSDSAIFVQSPNCNQRYGWHPATVCKIPPGCNLKIFNNQEFAALLAQSVNQGFEAVYQLTRMCTIRMSFVKGWGAEYRRQTVTSTPCWIELHLNGPLQWLDKVLTQMGSPSVRCSSMS | greatly suppressed Smad2 phosphorylation

Same assay, conditions: Smad2-depleted HeLa cells, 10 ng/ml TGF-β, 48 h

Molecule | Smad2 phosphorylation after TGF-β stimulation
Smad2-W422A: W422A mutant of full-length Smad2; specific PI(4,5)P2 binding-compromised (protein, left off: His6, N-terminal, state not stated) MSSILPFTPPVVKRLLGWKKSAGGSGGAGGGEQNGQEEKWCEKAVKSLVKKLKKTGRLDELEKAITTQNCNTKCVTIPSTCSEIWGLSTANTVDQWDTTGLYSFSEQTRSLDGRLQVSHRKGLPHVIYCRLWRWPDLHSHHELKAIENCEYAFNLKKDEVCVNPYHYQRVETPVLPPVLVPRHTEILTELPPLDDYTHSIPENTNFPAGIEPQSNYIPETPPPGYISEDGETSDQQLNQSMDTGSPAELSPTTLSPVNHSLDLQPVTYSEPAFWCSIAYYELNQRVGETFHASQPSLTVDGFTDPSNSERFCLGLLSNVNRNATVEMTRRHIGRGVRLYYIGGEVFAECLSDSAIFVQSPNCNQRYGWHPATVCKIPPGCNLKIFNNQEFAALLAQSVNQGFEAVYQLTRMCTIRMSFVKGAGAEYRRQTVTSTPCWIELHLNGPLQWLDKVLTQMGSPSVRCSSMS | minimally phosphorylated
Smad2-Y426A: Y426A mutant of full-length Smad2; specific PI(4,5)P2 binding-compromised (protein, left off: His6, N-terminal, state not stated) MSSILPFTPPVVKRLLGWKKSAGGSGGAGGGEQNGQEEKWCEKAVKSLVKKLKKTGRLDELEKAITTQNCNTKCVTIPSTCSEIWGLSTANTVDQWDTTGLYSFSEQTRSLDGRLQVSHRKGLPHVIYCRLWRWPDLHSHHELKAIENCEYAFNLKKDEVCVNPYHYQRVETPVLPPVLVPRHTEILTELPPLDDYTHSIPENTNFPAGIEPQSNYIPETPPPGYISEDGETSDQQLNQSMDTGSPAELSPTTLSPVNHSLDLQPVTYSEPAFWCSIAYYELNQRVGETFHASQPSLTVDGFTDPSNSERFCLGLLSNVNRNATVEMTRRHIGRGVRLYYIGGEVFAECLSDSAIFVQSPNCNQRYGWHPATVCKIPPGCNLKIFNNQEFAALLAQSVNQGFEAVYQLTRMCTIRMSFVKGWGAEARRQTVTSTPCWIELHLNGPLQWLDKVLTQMGSPSVRCSSMS | minimally phosphorylated
Smad2- R427A/R428A: double mutant of full-length Smad2; PI(4,5)P2 and TβRI binding-compromised (protein, left off: His6, N-terminal, state not stated) MSSILPFTPPVVKRLLGWKKSAGGSGGAGGGEQNGQEEKWCEKAVKSLVKKLKKTGRLDELEKAITTQNCNTKCVTIPSTCSEIWGLSTANTVDQWDTTGLYSFSEQTRSLDGRLQVSHRKGLPHVIYCRLWRWPDLHSHHELKAIENCEYAFNLKKDEVCVNPYHYQRVETPVLPPVLVPRHTEILTELPPLDDYTHSIPENTNFPAGIEPQSNYIPETPPPGYISEDGETSDQQLNQSMDTGSPAELSPTTLSPVNHSLDLQPVTYSEPAFWCSIAYYELNQRVGETFHASQPSLTVDGFTDPSNSERFCLGLLSNVNRNATVEMTRRHIGRGVRLYYIGGEVFAECLSDSAIFVQSPNCNQRYGWHPATVCKIPPGCNLKIFNNQEFAALLAQSVNQGFEAVYQLTRMCTIRMSFVKGWGAEYAAQTVTSTPCWIELHLNGPLQWLDKVLTQMGSPSVRCSSMS | minimally phosphorylated
Smad2-K420A: K420A mutant of full-length Smad2; predominantly TβRI binding-compromised (protein, left off: His6, N-terminal, state not stated) MSSILPFTPPVVKRLLGWKKSAGGSGGAGGGEQNGQEEKWCEKAVKSLVKKLKKTGRLDELEKAITTQNCNTKCVTIPSTCSEIWGLSTANTVDQWDTTGLYSFSEQTRSLDGRLQVSHRKGLPHVIYCRLWRWPDLHSHHELKAIENCEYAFNLKKDEVCVNPYHYQRVETPVLPPVLVPRHTEILTELPPLDDYTHSIPENTNFPAGIEPQSNYIPETPPPGYISEDGETSDQQLNQSMDTGSPAELSPTTLSPVNHSLDLQPVTYSEPAFWCSIAYYELNQRVGETFHASQPSLTVDGFTDPSNSERFCLGLLSNVNRNATVEMTRRHIGRGVRLYYIGGEVFAECLSDSAIFVQSPNCNQRYGWHPATVCKIPPGCNLKIFNNQEFAALLAQSVNQGFEAVYQLTRMCTIRMSFVAGWGAEYRRQTVTSTPCWIELHLNGPLQWLDKVLTQMGSPSVRCSSMS | little phosphorylation after TGF-β stimulation
Smad2-E425K: charge-reversal mutant of full-length Smad2; PI(4,5)P2 and TβRI binding-enhanced (protein, left off: His6, N-terminal, state not stated) MSSILPFTPPVVKRLLGWKKSAGGSGGAGGGEQNGQEEKWCEKAVKSLVKKLKKTGRLDELEKAITTQNCNTKCVTIPSTCSEIWGLSTANTVDQWDTTGLYSFSEQTRSLDGRLQVSHRKGLPHVIYCRLWRWPDLHSHHELKAIENCEYAFNLKKDEVCVNPYHYQRVETPVLPPVLVPRHTEILTELPPLDDYTHSIPENTNFPAGIEPQSNYIPETPPPGYISEDGETSDQQLNQSMDTGSPAELSPTTLSPVNHSLDLQPVTYSEPAFWCSIAYYELNQRVGETFHASQPSLTVDGFTDPSNSERFCLGLLSNVNRNATVEMTRRHIGRGVRLYYIGGEVFAECLSDSAIFVQSPNCNQRYGWHPATVCKIPPGCNLKIFNNQEFAALLAQSVNQGFEAVYQLTRMCTIRMSFVKGWGAKYRRQTVTSTPCWIELHLNGPLQWLDKVLTQMGSPSVRCSSMS | phosphorylated to a larger extent than WT
EGFP-Smad2 WT: mouse EGFP-Smad2 wild type transfected into HeLa cells (protein, UniProt Q62432 2-467, looked up, EGFP fusion, mouse EGFP-Smad2 wild type transfected into HeLa cells) Mothers against …: SSILPFTPPVVKRLLGWKKSAGGSGGAGGGEQNGQEEKWCEKAVKSLVKKLKKTGRLDELEKAITTQNCNTKCVTIPSTCSEIWGLSTANTVDQWDTTGLYSFSEQTRSLDGRLQVSHRKGLPHVIYCRLWRWPDLHSHHELKAIENCEYAFNLKKDEVCVNPYHYQRVETPVLPPVLVPRHTEILTELPPLDDYTHSIPENTNFPAGIEPQSNYIPETPPPGYISEDGETSDQQLNQSMDTGSPAELSPTTLSPVNHSLDLQPVTYSEPAFWCSIAYYELNQRVGETFHASQPSLTVDGFTDPSNSERFCLGLLSNVNRNATVEMTRRHIGRGVRLYYIGGEVFAECLSDSAIFVQSPNCNQRYGWHPATVCKIPPGCNLKIFNNQEFAALLAQSVNQGFEAVYQLTRMCTIRMSFVKGWGAEYRRQTVTSTPCWIELHLNGPLQWLDKVLTQMGSPSVRCSSMS | fully restored after TGF-β stimulation
